Experimental data taken from US20160168251A1 (MorphoSys, published 2016).

Experiments:
[1] = target: T1, human NPRB on HEK293 cells, without added ligand (human, UniProt P20594 23-1047); assay: FACS, HEK NPRB cells without ligand
T1 construct: whole, on cells; also called HEK NPRB cells; natriuretic peptide receptor B
T1 sequence (looked up): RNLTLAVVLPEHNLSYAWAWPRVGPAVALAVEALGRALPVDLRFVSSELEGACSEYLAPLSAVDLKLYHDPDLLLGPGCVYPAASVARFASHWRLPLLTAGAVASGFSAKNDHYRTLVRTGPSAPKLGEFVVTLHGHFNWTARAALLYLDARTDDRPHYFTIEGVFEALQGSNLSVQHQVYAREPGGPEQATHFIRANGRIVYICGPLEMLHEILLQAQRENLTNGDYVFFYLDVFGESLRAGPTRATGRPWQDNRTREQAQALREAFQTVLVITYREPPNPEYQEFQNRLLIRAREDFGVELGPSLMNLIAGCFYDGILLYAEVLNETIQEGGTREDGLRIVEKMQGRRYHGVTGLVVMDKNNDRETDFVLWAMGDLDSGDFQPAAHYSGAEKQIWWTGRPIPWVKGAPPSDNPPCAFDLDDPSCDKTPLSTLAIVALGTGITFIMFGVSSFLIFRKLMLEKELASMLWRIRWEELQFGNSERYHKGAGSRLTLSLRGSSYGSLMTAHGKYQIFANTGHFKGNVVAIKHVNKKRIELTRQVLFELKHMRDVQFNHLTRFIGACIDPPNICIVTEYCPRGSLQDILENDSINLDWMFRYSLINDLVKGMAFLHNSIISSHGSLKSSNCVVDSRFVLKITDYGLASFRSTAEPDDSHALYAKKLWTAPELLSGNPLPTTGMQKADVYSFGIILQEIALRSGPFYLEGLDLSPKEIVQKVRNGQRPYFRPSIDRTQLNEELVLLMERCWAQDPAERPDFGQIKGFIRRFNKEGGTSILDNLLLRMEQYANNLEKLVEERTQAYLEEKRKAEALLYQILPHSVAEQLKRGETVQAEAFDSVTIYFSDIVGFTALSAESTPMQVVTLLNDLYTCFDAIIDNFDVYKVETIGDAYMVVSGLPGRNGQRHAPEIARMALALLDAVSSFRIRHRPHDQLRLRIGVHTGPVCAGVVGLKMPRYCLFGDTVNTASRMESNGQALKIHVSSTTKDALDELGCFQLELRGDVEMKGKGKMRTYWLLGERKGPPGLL
Experimental: (§1) HEK NPRA cells are detached with Accutase (PAA Laboratories GmbH, Cat. No. L11-007, Austria), harvested by centrifugation (900 rpm, 4 minutes) and resuspended in FACS buffer (PBS/3% FCS/0.02% NaN3) to a final concentration of 10⁶ cells/ml. 100 μl of the cell suspension is transferred to each well of a 96 round bottom plate (TC Microwell 96U, Nunc). […] Cells are washed in 150 μl of FACS buffer, pelleted and resuspended in 50 μl of the solution containing the primary antibody comprising a BEL extract of Fabs, a diluted BEL extract or purified antibody diluted in FACS buffer and incubated on ice for 30 min. Cells are washed again in FACS buffer and resuspended in 50 μl of FACS buffer containing the secondary antibody (R-Phycoerythrin-conjugated Affipure F(ab′)₂ Fragment Goat Anti-Human IgG, Dianova) and incubated on ice for 45 min. Cells are washed twice with FACS buffer and resuspended in 200 μl of FACS buffer for analysis in the FACS Array (BD Biosciences).

[2] = target: T2, human NPRB on HEK293 cells in the presence of CNP (human, UniProt P20594 23-1047; P23582 105-126); assay: FACS, HEK NPRB cells with 100 nM CNP
T2 construct: whole, on cells;mature; also called HEK NPRB cells + 100 nM CNP
T2 sequence (P23582 105-126 limits assumed, chain 2 of 2, one chain of several): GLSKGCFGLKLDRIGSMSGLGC
Experimental: as §1

[3] = target: T3, human NPRA on HEK293 cells, without added ligand (human, UniProt P16066 33-1061); assay: FACS, HEK NPRA cells without ligand
T3 construct: a signal peptide is not delimited; also called HEK NPRA cells; HEK hNPRA cells
T3 sequence: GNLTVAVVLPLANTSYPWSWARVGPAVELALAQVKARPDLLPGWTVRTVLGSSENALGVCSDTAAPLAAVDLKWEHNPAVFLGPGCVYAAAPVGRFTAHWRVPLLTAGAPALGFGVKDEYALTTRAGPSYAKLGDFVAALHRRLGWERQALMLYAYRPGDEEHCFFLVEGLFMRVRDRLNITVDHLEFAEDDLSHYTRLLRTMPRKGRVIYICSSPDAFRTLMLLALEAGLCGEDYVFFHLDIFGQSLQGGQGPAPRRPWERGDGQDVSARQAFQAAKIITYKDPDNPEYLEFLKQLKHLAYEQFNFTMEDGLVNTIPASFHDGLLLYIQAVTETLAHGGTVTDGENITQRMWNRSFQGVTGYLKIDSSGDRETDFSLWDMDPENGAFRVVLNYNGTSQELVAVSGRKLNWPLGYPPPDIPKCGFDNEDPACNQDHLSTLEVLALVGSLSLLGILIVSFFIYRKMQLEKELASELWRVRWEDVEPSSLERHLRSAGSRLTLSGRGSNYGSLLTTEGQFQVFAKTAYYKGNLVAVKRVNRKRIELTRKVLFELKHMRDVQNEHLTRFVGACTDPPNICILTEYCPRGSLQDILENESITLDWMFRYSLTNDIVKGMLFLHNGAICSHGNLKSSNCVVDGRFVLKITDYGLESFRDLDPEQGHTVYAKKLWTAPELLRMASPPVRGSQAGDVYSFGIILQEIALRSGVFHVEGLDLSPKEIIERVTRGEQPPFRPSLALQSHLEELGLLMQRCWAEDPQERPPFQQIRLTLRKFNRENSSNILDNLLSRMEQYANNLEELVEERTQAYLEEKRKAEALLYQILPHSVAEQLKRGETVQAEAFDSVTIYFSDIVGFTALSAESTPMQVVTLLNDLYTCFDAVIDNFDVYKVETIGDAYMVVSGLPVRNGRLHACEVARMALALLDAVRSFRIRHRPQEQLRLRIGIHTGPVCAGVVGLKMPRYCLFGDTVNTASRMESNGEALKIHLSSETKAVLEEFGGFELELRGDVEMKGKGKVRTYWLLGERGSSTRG
Experimental: as §1

Measured: binding result

B1: 5592 IgG4_Pro (antibody, V domains shown)
VH: QVQLQQSGPGLVKPSQTLSLTCAISGDSVSSRSASWSWIRQSPGRGLEWLGRTYYRSHWYYEYAQSVKSRITINPDTSKNQFSLQLNSVTPEDTAVYYCARMDVPSFRYFDVWGQGTLVTVSS
VL: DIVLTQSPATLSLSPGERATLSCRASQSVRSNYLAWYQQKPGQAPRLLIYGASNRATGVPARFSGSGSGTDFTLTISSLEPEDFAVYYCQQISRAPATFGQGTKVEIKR
no binding (tested: 20 nM): all assays above

B2: 5591 IgG4_Pro (antibody, V domains shown)
VH: QVQLQQSGPGLVKPSQTLSLTCAISGDSVSSRSASWSWIRQSPGRGLEWLGRTYYRSHWYYEYAQSVKSRITINPDTSKNQFSLQLNSVTPEDTAVYYCARMDVPSFRYFDVWGQGTLVTVSS
VL: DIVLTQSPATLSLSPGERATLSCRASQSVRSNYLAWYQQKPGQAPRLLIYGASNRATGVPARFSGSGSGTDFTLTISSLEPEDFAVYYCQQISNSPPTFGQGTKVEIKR
no binding (tested: 20 nM): all assays above
